In US20060276387A1 (published 2006):

B1: human PHD finger protein 1 (PHF1), N-terminus HA-tagged (other, not shown: small tags and cut ends)
chain: MAQPPRLSRSGASSLWDPASPAPTSGPRPRLWEGQDVLARWTDGLLYLGTIKKVDSAREVCLVQFEDDSQFLVLWKDISPAALPGEELLCCVCRSETVVPGNRLVSCEKCRHAYHQDCHVPRAPAPGEGEGTSWVCRQCVFAIATKRGGALKKGPYARAMLGMKLSLPYGLKGLDWDAGHLSNRQQSYCYCGGPGEWNLKMLQCRSCLQWFHEACTQCLSKPLLYGDRFYEFECCVCRGGPEKVRRLQLRWVDVAHLVLYHLSVCCKKKYFDFDREILPFTSENWDSLLLGELSDTPKGERSSKLLSALNSHKDRFISGREIKKRKCLFGLHARMPPPVEPPTGDGALTSFPSGQGPGGGVSRPLGKRRRPEPEPLRRRQKGKVEELGPPSAVRNQPEPQEQRERAHLQRALQASVSPPSPSPNQSYQGSSGYNFRPTDARCLPSSPIRMFASFHPSASTAGTSGDSGPPDRSPLELHIGFPTDIPKSAPHSMTASSSSVSSPSPGLPRRSAPPSPLCRSLSPGTGGGVRGGVGYLSRGDPVRVLARRVRPDGSVQYLVEWGGGGIF
modifications: 35S-methionine-labeled (in the pull-down)
B2: human hepatocyte nuclear factor 3-gamma (HNF3G), N-terminus HA-tagged (other, not shown: small tags and cut ends)
chain: MLGSVKMEAHDLAEWSYYPEAGEVYSPVTPVPTMAPLNSYMTLNPLSSPYPPGGLPASPLPSGPLAPPAPAAPLGPTFPGLGVSGGSSSSGYGAPGPGLVHGKEMPKGYRRPLAHAKPPYSYISLITMAIQQAPGKMLTLSEIYQWIMDLFPYYRENQQRWQNSIRHSLSFNDCFVKVARSPDKPGKGSYWALHPSSGNMFENGCYLRRQKRFKLEEKVKKGGSGAATTTRNGTGSAASTTTPAATVTSPPQPPPPAPEPEAQGGEDVGALDCGSPASSTPYFTGLELPGELKLDAPYNFNHPFSINNLMSEQTPAPPKLDVGFGGYGAEGGEPGVYYQGLYSRSLLNAS
modifications: 35S-methionine-labeled (in the pull-down)
B3: human distal-less homeobox 4 (DLX4), N-terminus HA-tagged (other, not shown: small tags and cut ends)
chain: MTSLPCPLPGRDASKAVFPDLAPVPSVAAAYPLGLSPTTAASPNLSYSRPYGHLLSYPYTEPANPGDSYLSCQQPAALSQPLCGPAEHPQELEADSEKPRLSPEPSERRPQAPAKKLRKPRTIYSSLQLQHLNQRFQHTQYLALPERAQLAAQLGLTQTQVKIWFQNKRSKYKKLLKQNSGGQEGDFPGRTFSVSPCSPPLPSLWDLPKAGTLPTSGYGNSFGAWYQHHSSDVLASPQMM
modifications: 35S-methionine-labeled (in the pull-down)

Target: human IPF1, N-terminus FLAG-tagged (from pcDNA-FLAG-IPF1) (human, UniProt P52945 1-283, limits assumed)
Assay: cell-based or functional assay

Chain of human IPF1, N-terminus FLAG-tagged (from pcDNA-FLAG-IPF1) (P52945 whole entry): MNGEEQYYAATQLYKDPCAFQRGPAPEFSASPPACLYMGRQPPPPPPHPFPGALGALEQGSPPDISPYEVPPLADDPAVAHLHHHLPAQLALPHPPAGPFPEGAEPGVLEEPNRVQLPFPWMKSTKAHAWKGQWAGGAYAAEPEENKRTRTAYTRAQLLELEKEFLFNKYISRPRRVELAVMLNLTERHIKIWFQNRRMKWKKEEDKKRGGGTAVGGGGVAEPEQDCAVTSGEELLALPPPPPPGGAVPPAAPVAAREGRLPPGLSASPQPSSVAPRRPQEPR

| Binder | IPF1-dependent human insulin promoter activity (luciferase reporter, HeLa cells), inhibition [%] |
| --- | --- |
| B1 | ~25 |
| B2 | ~45 |
| B3 | ~60 |
